The text below walks through data of patent US20220290120A1.

Test [1] deals with catalytically inactive Cas9 (dCas9) (Streptococcus pyogenes) (UniProt Q99ZW2). The test is described as follows: cell-based or functional assay.
The target in test [2] is Cas9 nickase (nCas9) (Streptococcus pyogenes) (UniProt Q99ZW2). The test is described as follows: cell-based or functional assay.

In test [1], AcrIIA4 anti-CRISPR peptide displayed a percent enzyme expression of gusA after dCas9 induction from Plasmid 6 (with acrIIA4); X-Gluc assay in E. coli of 0%, a percent enzyme expression of lacZ after dCas9 induction from Plasmid 6 (with acrIIA4); LacZ blue white screening in E. coli of 27.3% and a percent expression of flhC after dCas9 induction from Plasmid 6 (with acrIIA4); swimming motility assay in E. coli of 100%. Also, the average percent of qPCR-confirmed edited cells with nCas9 Plasmid 4 (+acrIIA4), per sgRNA unit pair; without acrIIA4 (Plasmid 5) between 73% and 100% in test [2] fell in the range of 0.7 to 5.9%.
